Here are results for four substances from patent publication US20080045697A1.

Bounds are passed on as bounds.

Experiment [1] has as its target complement C3b (UniProt P01024). The experiment is described as follows: competition ELISA: CRIg protein against CRIg-LFH on plate-coated C3b, anti-FLAG detection. (An ELISA detects its analyte on a solid surface through an enzyme-linked reagent.)
Experiment [2] shares this target. The experiment is described as follows: cell-based or functional assay.

The substance “CRIg mutant A (E85A M86A) (from UniProt Q9Y279 20-399) (receptor)” gave a fold increase of IC50 compared to wt CRIg with complement C3b [1] greater than 10000 fold.

Substance “CRIg mutant B (H57A Q59A) (from UniProt Q9Y279 20-399) (receptor)” had a fold increase of IC50 compared to wt CRIg with complement C3b [1] of 100 fold.

Take “CRIg-Fc (from UniProt Q9Y279 20-283) (Fc fusion)”: the inhibition of hemolysis of rabbit erythrocytes in C1q deficient serum (alternative pathway) in the experiment with complement C3b [2] amounted to 127 nM.

For “CRIg (soluble, construct not stated) (from UniProt Q9Y279 20-189) (receptor)”, the inhibition of C5b-9 deposition through the alternative pathway (LPS-coated plate, C1q deficient serum) in the experiment with complement C3b [2] is 1.49 µM.
